This passage reports neutralizing 50% inhibitory concentration (IC50), pseudovirus neutralization assay results from US20100203630A1.

In the test the target is envelope of the SF162 strain of pseudovirus (HIV, SF162) (UniProt P19550). In words: cell-based or functional assay.

With purified b12-IgG1 (antibody), the neutralizing 50% inhibitory concentration (IC50), pseudovirus neutralization assay was 0.026 µg/mL.
